One test has as its target T1, P6-AA-12HAA-E.
T1 chain: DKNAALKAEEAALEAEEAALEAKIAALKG
Kind of test: two-hybrid library CCmax.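 Note: natural log of median RNA to DNA barcode read ratio; higher means stronger binding.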 As to conditions: mean of both orientations.

Another test concerns the target T2, P6-AA-12HAA-D.
T2 chain: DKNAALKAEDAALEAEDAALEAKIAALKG
Briefly: two-hybrid library CCmax.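 Note: natural log of median RNA to DNA barcode read ratio; higher means stronger binding.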 As to conditions: mean of both orientations.

A further test has as its target T3, P6-AA-1HAA-N.
T3 chain: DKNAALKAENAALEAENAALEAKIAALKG
Briefly: two-hybrid library CCmax.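 Note: natural log of median RNA to DNA barcode read ratio; higher means stronger binding.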 The conditions noted are these: mean of both orientations.

In another test the target is T4, P6-AA-12HAA-V.
T4 chain: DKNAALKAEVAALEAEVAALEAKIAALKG
Kind of test: two-hybrid library CCmax.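 Note: natural log of median RNA to DNA barcode read ratio; higher means stronger binding.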 As to conditions: mean of both orientations.

A further test concerns the target T5, P6-AA-12HAA-T.
T5 chain: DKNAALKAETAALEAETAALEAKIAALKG
Briefly: two-hybrid library CCmax.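 Note: natural log of median RNA to DNA barcode read ratio; higher means stronger binding.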 The conditions noted are these: mean of both orientations.

The target in another test is T6, P6-AA-12HAA-R.
T6 chain: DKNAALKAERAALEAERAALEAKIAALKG
Kind of test: two-hybrid library CCmax.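 Note: natural log of median RNA to DNA barcode read ratio; higher means stronger binding.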 As to conditions: mean of both orientations.

Another test has as its target T7, P6-AA-12HAA-H.
T7 chain: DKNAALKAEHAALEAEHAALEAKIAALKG
Kind of test: two-hybrid library CCmax. As to conditions: mean of both orientations.

In a further test the target is T8, P6-AA-12HAA-L.
T8 chain: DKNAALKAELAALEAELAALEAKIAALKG
Briefly: two-hybrid library CCmax. As to conditions: mean of both orientations.

The next test has as its target T9, P6-AA-12HAA-K.
T9 chain: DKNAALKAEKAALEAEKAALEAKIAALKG
Kind of test: two-hybrid library CCmax. The conditions noted are these: mean of both orientations.

For the next test, the target named is T10, P6-AA-12HAA-S.
T10 chain: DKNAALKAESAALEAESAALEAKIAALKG
Kind of test: two-hybrid library CCmax. The conditions noted are these: mean of both orientations.

The target in a further test is T11, P6-AA-12HAA-Y.
T11 chain: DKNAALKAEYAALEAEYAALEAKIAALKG
Kind of test: two-hybrid library CCmax. As to conditions: mean of both orientations.

For a further test, the target named is T12, 4H730-bN.
T12 chain: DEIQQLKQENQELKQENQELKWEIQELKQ
Kind of test: two-hybrid library CCNG1.

The target in a further test is T13, 4H796-bN.
T13 chain: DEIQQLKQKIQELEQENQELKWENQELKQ
Briefly: two-hybrid library CCNG1.

The target of a further test is T14, 4H3297-bN.
T14 chain: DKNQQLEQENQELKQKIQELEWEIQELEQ
Kind of test: two-hybrid library CCNG1.

The next test has as its target T15, 4H932-bN.
T15 chain: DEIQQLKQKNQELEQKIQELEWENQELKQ
Kind of test: two-hybrid library CCNG1.

For the next test, the target named is T16, 4H3381-bN.
T16 chain: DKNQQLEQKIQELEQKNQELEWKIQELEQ
Kind of test: two-hybrid library CCNG1.

The next test has as its target T17, 4H2931-bN.
T17 chain: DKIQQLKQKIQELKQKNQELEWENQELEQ
Kind of test: two-hybrid library CCNG1.

The target of the next test is T18, 4H3041-bN.
T18 chain: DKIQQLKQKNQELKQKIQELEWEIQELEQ
Briefly: two-hybrid library CCNG1.

The next test addresses T19, 4H349-bN.
T19 chain: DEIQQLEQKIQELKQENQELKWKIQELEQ
Briefly: two-hybrid library CCNG1.

The next test has as its target T20, 4H3364-bN.
T20 chain: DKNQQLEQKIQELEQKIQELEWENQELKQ
Briefly: two-hybrid library CCNG1.

The target in the next test is T21, 4H56-bN.
T21 chain: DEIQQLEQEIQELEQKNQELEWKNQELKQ
Kind of test: two-hybrid library CCNG1.

The target in the next test is T22, 4H949-bN.
T22 chain: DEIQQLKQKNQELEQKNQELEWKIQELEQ
Briefly: two-hybrid library CCNG1.

B1: P5-AA-12HAA-T (peptide)
chain: DENAALEAKTAALKAKTAALKAEIAALEG
As for B1, the interaction score with P6-AA-12HAA-E is -1.36; with P6-AA-12HAA-D, -2.09; with P6-AA-1HAA-N, -1.49; with P6-AA-12HAA-V, 1.5; with P6-AA-12HAA-T, -1.23; in the test with P6-AA-12HAA-R, -1.74. Moreover, the interaction score with P6-AA-12HAA-H was -1.12; with P6-AA-12HAA-L, 1.25; with P6-AA-12HAA-K it was -1.33; in the test with P6-AA-12HAA-S, -1.61; with P6-AA-12HAA-Y it was 0.46.

B2: P5-AA-12HAA-S (peptide)
chain: DENAALEAKSAALKAKSAALKAEIAALEG
For the molecule B2, the interaction score with P6-AA-12HAA-E was -1.88; in the test with P6-AA-12HAA-D, -1.65; in the test with P6-AA-1HAA-N, -1.02; with P6-AA-12HAA-V, 1.55; with P6-AA-12HAA-T, -1.48; with P6-AA-12HAA-R, -1.81. In addition, the interaction score with P6-AA-12HAA-H was -1.82; with P6-AA-12HAA-L, 0.323; in the test with P6-AA-12HAA-K, -1.73; in the test with P6-AA-12HAA-S it was -1.65; with P6-AA-12HAA-Y it was -0.94.

B3: P5-AA-12HAA-R (peptide)
chain: DENAALEAKRAALKAKRAALKAEIAALEG
With B3, the interaction score is -1.43 in the test with P6-AA-12HAA-E; -1.88 with P6-AA-12HAA-D; 0.341 with P6-AA-1HAA-N; 2.1 with P6-AA-12HAA-V; -0.88 with P6-AA-12HAA-T; -1.5 with P6-AA-12HAA-R. Moreover, the interaction score with P6-AA-12HAA-H is -1.83; in the test with P6-AA-12HAA-L, 1.4; with P6-AA-12HAA-K it was -1.69; in the test with P6-AA-12HAA-S it was -1.83; with P6-AA-12HAA-Y, -1.07.

B4: 4H2931-bN (peptide)
chain: DKIQQLKQKIQELKQKNQELEWENQELEQ
In the case of B4, the interaction score was -1.27 with 4H730-bN; -1.66 with 4H796-bN; -0.835 in the test with 4H3297-bN; -0.619 with 4H932-bN; -1.1 in the test with 4H3381-bN; -0.656 in the test with 4H2931-bN. Also, the interaction score with 4H3041-bN was -0.593; in the test with 4H349-bN, -1.08; with 4H3364-bN, -0.721; with 4H56-bN it was 0.0366; in the test with 4H949-bN it was -0.75.

B5: P5-AA-12HAA-E (peptide)
chain: DENAALEAKEAALKAKEAALKAEIAALEG
With B5, the interaction score in the test with P6-AA-12HAA-E is -1.42; in the test with P6-AA-12HAA-D, -1.48; with P6-AA-1HAA-N, -1.74; with P6-AA-12HAA-V, 0.123; in the test with P6-AA-12HAA-T, -1.32; with P6-AA-12HAA-R it was -2.01. The interaction score with P6-AA-12HAA-H is -1.89; with P6-AA-12HAA-L it was -0.949; in the test with P6-AA-12HAA-K, -2.37; with P6-AA-12HAA-S, -1.39; in the test with P6-AA-12HAA-Y, -1.59.
